In patent US20180155451A1 (published 2018):

T1: FcγRIIb extracellular domain with C-terminal His tag (human, UniProt P31994 43-217)
T1 construct: extracellular domain; also called 2b; FcgRIIb
T1 sequence (looked up): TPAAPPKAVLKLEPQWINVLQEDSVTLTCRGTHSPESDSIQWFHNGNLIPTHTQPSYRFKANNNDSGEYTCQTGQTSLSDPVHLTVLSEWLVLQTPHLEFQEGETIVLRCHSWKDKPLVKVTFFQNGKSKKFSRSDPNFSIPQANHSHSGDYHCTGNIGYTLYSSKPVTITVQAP

T2: FcγRIIa H (human, UniProt P12318 34-217)
T2 construct: extracellular domain; also called FcγRIIa type H; 2aH
T2 sequence (looked up): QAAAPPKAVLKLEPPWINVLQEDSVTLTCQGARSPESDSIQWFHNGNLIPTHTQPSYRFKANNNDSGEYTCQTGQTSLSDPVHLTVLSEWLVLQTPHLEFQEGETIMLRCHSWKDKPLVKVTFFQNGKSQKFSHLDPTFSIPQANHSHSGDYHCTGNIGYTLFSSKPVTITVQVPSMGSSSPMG

T3: FcγRIIb (human, UniProt P31994 43-217)
T3 construct: extracellular domain; also called 2b
T3 sequence (looked up): T1 sequence (looked up)

B1: GpH7-A5/GpH7-B3 variant L235_19Q/GpL16-k0 (antibody, human IgG1, kappa)
heavy 1: not shown
heavy 2: not shown
light: DIVMTQSPLSLPVTPGEPASISCQASESLVHSNRNTYLHWYLQKPGQSPQLLIYKVSNRFSGVPDRFSGSGSGTDFTLKISRVEAEDVGVYYCSQNTHVPPTFGQGTKVEIERTVAAPSVFIFPPSDEQLKSGTASVVCLLNNFYPREAKVQWKVDNALQSGNSQESVTEQDSKDSTYSLSSTLTLSKADYEKHKVYACEVTHQGLSSPVTKSFNRGEC
notes: He Ab: alteration in one H chain only; also called He Ab
B2: GpH7-A5/GpH7-B3 variant S267_01G/GpL16-k0 (antibody, human IgG1, kappa)
heavy 1: not shown
heavy 2: not shown
light: B1 light
notes: heterodimerized IgG1, mutation in one H chain only; also called He Ab
B3: GpH7-A5/GpH7-B3 variant S267_14T/GpL16-k0 (antibody, human IgG1, kappa)
heavy 1: not shown
heavy 2: not shown
light: B1 light
notes: as for B2
B4: GpH7-A5/GpH7-B3 variant H268_18N/GpL16-k0 (antibody, human IgG1, kappa)
heavy 1: not shown
heavy 2: not shown
light: B1 light
notes: as for B2
B5: GpH7-A5/GpH7-B3 variant K326_02A/GpL16-k0 (antibody, human IgG1, kappa)
heavy 1: not shown
heavy 2: not shown
light: B1 light
notes: as for B2
B6: GpH7-A5/GpH7-B3 variant P271_14T/GpL16-k0 (antibody, human IgG1, kappa)
heavy 1: not shown
heavy 2: not shown
light: B1 light
notes: as for B2
B7: GpH7-A5/GpH7-B3 variant S267_02A/GpL16-k0 (antibody, human IgG1, kappa)
heavy 1: not shown
heavy 2: not shown
light: B1 light
notes: as for B2
B8: GpH7-A5/GpH7-B3 variant H268_10E/GpL16-k0 (antibody, human IgG1, kappa)
heavy 1: not shown
heavy 2: not shown
light: B1 light
notes: as for B2
B9: GpH7-A5/GpH7-B3 variant H268_13S/GpL16-k0 (antibody, human IgG1, kappa)
heavy 1: not shown
heavy 2: not shown
light: B1 light
notes: as for B2
B10: GpH7-A5/GpH7-B3 variant P271_09D/GpL16-k0 (antibody, human IgG1, kappa)
heavy 1: not shown
heavy 2: not shown
light: B1 light
notes: as for B2
B11: GpH7-A5/GpH7-B3 variant P271_10E/GpL16-k0 (antibody, human IgG1, kappa)
heavy 1: not shown
heavy 2: not shown
light: B1 light
notes: as for B2
B12: GpH7-A5/GpH7-B3 variant S267_06M/GpL16-k0 (antibody, human IgG1, kappa)
heavy 1: not shown
heavy 2: not shown
light: B1 light
notes: as for B2
B13: GpH7-A5/GpH7-B3 variant P271_01G/GpL16-k0 (antibody, human IgG1, kappa)
heavy 1: not shown
heavy 2: not shown
light: B1 light
notes: as for B2
B14: GpH7-A5/GpH7-B3 variant H268_05P/GpL16-k0 (antibody, human IgG1, kappa)
heavy 1: not shown
heavy 2: not shown
light: B1 light
notes: as for B2
B15: GpH7-A5/GpH7-B3 variant S267_07I/GpL16-k0 (antibody, human IgG1, kappa)
heavy 1: not shown
heavy 2: not shown
light: B1 light
notes: as for B2
B16: GpH7-A5/GpH7-B3 variant H268_02A/GpL16-k0 (antibody, human IgG1, kappa)
heavy 1: not shown
heavy 2: not shown
light: B1 light
notes: as for B2
B17: GpH7-A5/GpH7-B3 variant K326_05P/GpL16-k0 (antibody, human IgG1, kappa)
heavy 1: not shown
heavy 2: not shown
light: B1 light
notes: as for B2
B18: GpH7-A5/GpH7-B3 variant S267_15Y/GpL16-k0 (antibody, human IgG1, kappa)
heavy 1: not shown
heavy 2: not shown
light: B1 light
notes: as for B2
B19: GpH7-A5/GpH7-B3 variant S267_08L/GpL16-k0 (antibody, human IgG1, kappa)
heavy 1: not shown
heavy 2: not shown
light: B1 light
notes: as for B2
B20: GpH7-A5/GpH7-B3 variant S267_03V/GpL16-k0 (antibody, human IgG1, kappa)
heavy 1: not shown
heavy 2: not shown
light: B1 light
notes: as for B2
B21: GpH7-A5/GpH7-B3 variant S267_16H/GpL16-k0 (antibody, human IgG1, kappa)
heavy 1: not shown
heavy 2: not shown
light: B1 light
notes: as for B2
B22: GpH7-A5/GpH7-B3 variant S267_09D/GpL16-k0 (antibody, human IgG1, kappa)
heavy 1: not shown
heavy 2: not shown
light: B1 light
notes: as for B2
B23: GpH7-A5/GpH7-B3 variant H268_09D/GpL16-k0 (antibody, human IgG1, kappa)
heavy 1: not shown
heavy 2: not shown
light: B1 light
notes: as for B2
B24: GpH7-A5/GpH7-B3 variant S267_04F/GpL16-k0 (antibody, human IgG1, kappa)
heavy 1: not shown
heavy 2: not shown
light: B1 light
notes: as for B2
B25: GpH7-A5/GpH7-B3 variant S267_05P/GpL16-k0 (antibody, human IgG1, kappa)
heavy 1: not shown
heavy 2: not shown
light: B1 light
notes: as for B2
B26: GpH7-A5/GpH7-B3 variant K326_04F/GpL16-k0 (antibody, human IgG1, kappa)
heavy 1: not shown
heavy 2: not shown
light: B1 light
notes: as for B2
B27: GpH7-A5/GpH7-B3 variant H268_01G/GpL16-k0 (antibody, human IgG1, kappa)
heavy 1: not shown
heavy 2: not shown
light: B1 light
notes: as for B2
B28: GpH7-A5/GpH7-B3 variant S267_10E/GpL16-k0 (antibody, human IgG1, kappa)
heavy 1: not shown
heavy 2: not shown
light: B1 light
notes: as for B2
B29: GpH7-A5/GpH7-B3 variant H268_19Q/GpL16-k0 (antibody, human IgG1, kappa)
heavy 1: not shown
heavy 2: not shown
light: B1 light
notes: as for B2
B30: GpH7-A5/GpH7-B3 variant K326_03V/GpL16-k0 (antibody, human IgG1, kappa)
heavy 1: not shown
heavy 2: not shown
light: B1 light
notes: as for B2

These binders were tested against T4, FcγRIIIa extracellular domain with C-terminal His tag (human, UniProt P08637 17-208) (assay: SPR; He/Con_3a over He/Con_2b (FcγRIIb)).
T4 construct: extracellular domain; also called 3a; FcgRIIIa
T4 sequence (P08637 17-208): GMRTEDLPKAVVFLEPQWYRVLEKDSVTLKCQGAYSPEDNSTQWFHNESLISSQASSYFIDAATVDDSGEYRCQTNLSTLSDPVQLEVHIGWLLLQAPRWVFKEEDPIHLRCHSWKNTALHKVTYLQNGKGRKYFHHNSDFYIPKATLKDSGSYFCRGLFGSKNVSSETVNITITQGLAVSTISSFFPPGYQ

Row | Binder | He_3a/2b (IIIa/IIb) [ratio]
1 | B1 | 1.65

What follows are binders tested against T4, FcγRIIIa extracellular domain with … (assay: SPR, relative to GpH7-A5/GpH7-B3/GpL16-k0).

Row | Binder | He/Con_3a [control=100]
2 | B1 | 70.5

Each binder was assayed against T1, FcγRIIb extracellular domain with … (assay: SPR, relative to GpH7-A5/GpH7-B3/GpL16-k0).

Row | Binder | He/Con_2b [control=100]
3 | B1 | 42.6

Each binder was assayed against T2, FcγRIIa H (assay: SPR; He/Con_2aH divided by He/Con_2b (FcγRIIb)).
Procedure: (§1) The heterodimerized antibodies He Abs in which one of the H chains was introduced with an alteration were assayed for their binding activities to each activating FcγR and inhibitory FcγR according to the method described in Example 4. […] The activating FcγRs in FIGS. 26, 27, 28, and 29 are FcγRIa, FcγRIIa (R), FcγRIIa (H), and FcγRIIIa, respectively.
(§2) Analysis of interaction between objective antibody and the FcγR was carried out using Biacore T100 (GE Healthcare). HBS-EP+ (GE Healthcare) was used as the running buffer, and the measurement temperature was set to 25° C. Chips produced by immobilizing the antigen peptide by the amine coupling method to a Series S Sencor Chip CM5 (GE Healthcare), or alternatively, chips produced by allowing preliminarily biotinylated antigen peptides to interact with and immobilize onto a Series S Sensor Chip SA (certified) (GE Healthcare) were used. Antibodies of interest were captured onto an antigen peptide-immobilized chip, and allowed to interact to each FcγR diluted with running buffer. To regenerate and repeatedly use the chip, the antibodies captured on the chip were washed off by reacting 10 mM glycine-HCl, pH 1.5.

Row | Binder | He_2aH/2b (IIaH/IIb) [ratio]
4 | B2 | 0.68
5 | B3 | 0.61
6 | B4 | 0.72
7 | B5 | 0.76
8 | B6 | 0.64
9 | B7 | 0.49
10 | B8 | 0.54
11 | B9 | 0.7
12 | B10 | 0.58
13 | B11 | 0.58
14 | B12 | 0.16
15 | B13 | 0.55
16 | B14 | 0.7
17 | B15 | 0.18
18 | B16 | 0.68
19 | B17 | 0.79
20 | B18 | 0.52
21 | B19 | 0.27
22 | B20 | 0.26
23 | B21 | 0.45
24 | B22 | 0.34
25 | B23 | 0.55
26 | B24 | 0.47
27 | B25 | 0.8
28 | B26 | 0.63
29 | B27 | 0.69
30 | B28 | 0.27
31 | B29 | 0.77
32 | B30 | 0.55

Each binder was assayed against T2, FcγRIIa H (assay: SPR (Biacore), relative binding vs GpH7-A5/GpH7-B3/GpL16-k0).
Procedure: as §1, §2

Row | Binder | He/Con_2aH
33 | B2 | 71.3 % of control He Ab (=100)
34 | B3 | 63.3 % of control He Ab (=100)
35 | B4 | 112 % of control He Ab (=100)
36 | B5 | 106 % of control He Ab (=100)
37 | B6 | 60.9 % of control He Ab (=100)
38 | B7 | 120 % of control He Ab (=100)
39 | B8 | 124 % of control He Ab (=100)
40 | B9 | 112 % of control He Ab (=100)
41 | B10 | 70.1 % of control He Ab (=100)
42 | B11 | 63.1 % of control He Ab (=100)
43 | B12 | 34.3 % of control He Ab (=100)
44 | B13 | 107 % of control He Ab (=100)
45 | B14 | 81.8 % of control He Ab (=100)
46 | B15 | 34.7 % of control He Ab (=100)
47 | B16 | 114 % of control He Ab (=100)
48 | B17 | 98.8 % of control He Ab (=100)
49 | B18 | 19.6 % of control He Ab (=100)
50 | B19 | 29 % of control He Ab (=100)
51 | B20 | 50.8 % of control He Ab (=100)
52 | B21 | 29.8 % of control He Ab (=100)
53 | B22 | 105 % of control He Ab (=100)
54 | B23 | 133 % of control He Ab (=100)
55 | B24 | 22.7 % of control He Ab (=100)
56 | B25 | 25.1 % of control He Ab (=100)
57 | B26 | 97 % of control He Ab (=100)
58 | B27 | 99.2 % of control He Ab (=100)
59 | B28 | 102 % of control He Ab (=100)
60 | B29 | 102 % of control He Ab (=100)
61 | B30 | 97 % of control He Ab (=100)

Each binder was assayed against T3, FcγRIIb in the same assay as above.
Procedure: as §1, §2

Row | Binder | He/Con_2b
62 | B2 | 105 % of control He Ab (=100)
63 | B3 | 104 % of control He Ab (=100)
64 | B4 | 156 % of control He Ab (=100)
65 | B5 | 139 % of control He Ab (=100)
66 | B6 | 95.4 % of control He Ab (=100)
67 | B7 | 243 % of control He Ab (=100)
68 | B8 | 230 % of control He Ab (=100)
69 | B9 | 160 % of control He Ab (=100)
70 | B10 | 120 % of control He Ab (=100)
71 | B11 | 109 % of control He Ab (=100)
72 | B12 | 210 % of control He Ab (=100)
73 | B13 | 193 % of control He Ab (=100)
74 | B14 | 116 % of control He Ab (=100)
75 | B15 | 192 % of control He Ab (=100)
76 | B16 | 167 % of control He Ab (=100)
77 | B17 | 126 % of control He Ab (=100)
78 | B18 | 37.9 % of control He Ab (=100)
79 | B19 | 109 % of control He Ab (=100)
80 | B20 | 192 % of control He Ab (=100)
81 | B21 | 65.9 % of control He Ab (=100)
82 | B22 | 310 % of control He Ab (=100)
83 | B23 | 239 % of control He Ab (=100)
84 | B24 | 48 % of control He Ab (=100)
85 | B25 | 31.5 % of control He Ab (=100)
86 | B26 | 155 % of control He Ab (=100)
87 | B27 | 144 % of control He Ab (=100)
88 | B28 | 379 % of control He Ab (=100)
89 | B29 | 133 % of control He Ab (=100)
90 | B30 | 175 % of control He Ab (=100)
